# Paper PMC5122770, “Homodimerization of the Lymph Vessel Endothelial Receptor LYVE-1 through a Redox-labile Disulfide Is Critical for Hyaluronan Binding in Lymphatic Endothelium*^([image sbox.jpg])” (The Journal of Biological Chemistry, 2016)
# Experiments:
# [1] = molecular target: the molecule itself; test: non-reducing SDS-PAGE with Western blot; whole cell lysate of primary HDLEC lysed without NEM; non-reducing; polyclonal LYVE-1 antibody
# [2] = molecular target: the molecule itself; test: non-reducing SDS-PAGE with Western blot; cells lysed in LDS sample buffer with 5 mM NEM; non-reducing; polyclonal LYVE-1 antibody, densitometry (Licor Odyssey)
# [3] = molecular target: the molecule itself; test: non-reducing SDS-PAGE with Western blot; CHO cell-derived soluble protein dissolved in LDS sample buffer with NEM; non-reducing
# [4] = molecular target: the molecule itself; test: non-reducing SDS-PAGE with Western blot; mouse liver and lung tissue, minced and lysed with 5 mM NEM; non-reducing
# [5] = molecular target: the molecule itself; test: non-reducing SDS-PAGE with Western blot; freshly resected mouse ear skin and lymph node, minced and lysed with 5 mM NEM; non-reducing
protein,measurement,setting,value
"LYVE-1 (native receptor in primary human dermal lymphatic endothelial cells) (receptor, human (endogenous in HDLEC), UniProt Q9Y5Y7 20-322, looked up, LYVE-1, human, endogenous receptor of primary human dermal lymphatic endothelial cells; glycosylated; also called lymphatic vessel endothelial receptor LYVE-1; hLYVE-1; source: endogenous, primary HDLEC whole cell lysate) LVQGSLRAEELSIQVSCRIMGITLVSKKANQQLNFTEAKEACRLLGLSLAGKDQVETALKASFETCSYGWVGDGFVVISRISPNPKCGKNGVGVLIWKVPVSRQFAAYCYNSSDTWTNSCIPEIITTKDPIFNTQTATQTTEFIVSDSTYSVASPYSTIPAPTTTPPAPASTSIPRRKKLICVTEVFMETSTMSTETEPFVENKAAFKNEAAGFGGVPTALLVLALLFFGAAAGLGFCYVKRYVKAFPFTNKNQQKEMIETKVVKEEKANDSNPNEESKKTDKNPEESKSPSKTTVRCLEAEV",stoichiometry N,[1],2
"full-length wild-type hLYVE-1 (in HEK 293T cells) (receptor, human, UniProt Q9Y5Y7 20-322, looked up, also called wild-type receptor; source: HEK 293T, transfected, in lysate) LVQGSLRAEELSIQVSCRIMGITLVSKKANQQLNFTEAKEACRLLGLSLAGKDQVETALKASFETCSYGWVGDGFVVISRISPNPKCGKNGVGVLIWKVPVSRQFAAYCYNSSDTWTNSCIPEIITTKDPIFNTQTATQTTEFIVSDSTYSVASPYSTIPAPTTTPPAPASTSIPRRKKLICVTEVFMETSTMSTETEPFVENKAAFKNEAAGFGGVPTALLVLALLFFGAAAGLGFCYVKRYVKAFPFTNKNQQKEMIETKVVKEEKANDSNPNEESKKTDKNPEESKSPSKTTVRCLEAEV",dimer:monomer ratio,[2],2 dimer:monomer
"hLYVE-1 Δ238 His10 (soluble full ectodomain, wild type) (domain or fragment, human, UniProt Q9Y5Y7 20-238, looked up, signal peptide in the construct (forward primer begins 14 nt before the start ATG); LYVE-1, human, full-length extracellular domain terminating after residue number 238; secreted from CHO cells; Recovered as a mixture of monomers and disulfide-linked dimers; the homodimer was separated by multiple rounds of size exclusion chromatography; also called soluble hLYVE-1 ectodomain; WT LYVE-1 His10; …) LVQGSLRAEELSIQVSCRIMGITLVSKKANQQLNFTEAKEACRLLGLSLAGKDQVETALKASFETCSYGWVGDGFVVISRISPNPKCGKNGVGVLIWKVPVSRQFAAYCYNSSDTWTNSCIPEIITTKDPIFNTQTATQTTEFIVSDSTYSVASPYSTIPAPTTTPPAPASTSIPRRKKLICVTEVFMETSTMSTETEPFVENKAAFKNEAAGFGGVPT",binding result,[3],binds
"mouse LYVE-1 (native receptor in mouse tissues) (receptor, mouse (endogenous in mouse tissues), UniProt Q8BHC0 24-318, looked up, LYVE-1, mouse, endogenous in tissue lysates; source: endogenous, lysates of freshly resected mouse ear skin, lymph node, liver and lung) ADLVQDLSISTCRIMGVALVGRNKNPQMNFTEANEACKMLGLTLASRDQVESAQKSGFETCSYGWVGEQFSVIPRIFSNPRCGKNGKGVLIWNAPSSQKFKAYCHNSSDTWVNSCIPEIVTTFYPVLDTQTPATEFSVSSSAYLASSPDSTTPVSATTRAPPLTSMARKTKKICITEVYTEPITMATETEAFVASGAAFKNEAAGFGGVPTALLVLALLFFGAAAVLAVCYVKRYVKAFPFTTKNQQKEMIETKVVKEEKADDVNANEESKKTIKNPEEAKSPPKTTVRCLEAEV",homodimer:monomer ratio,[4],~2 homodimer:monomer
same,stoichiometry N,[5],2
